Numbered stars: 1 amine (or outer) side, 2 acyl side, 3 side chain; on linkers, the order of the positions; unused ones are H or OH. Bridge positions count the residues as written; N and C are the ends. Side chains are listed from the residue outwards. Ends that are not written are not given here. * marks the point of attachment. C20 diacid = O=C(O)CCCCCCCCCCCCCCCCCCC(=O)*; γGlu = O=C(O)[C@H](CCC(=O)[*:2])N[*:1]
T1: rat calcitonin receptor (rat, UniProt P32214 25-516)
T1 construct: whole, on cells; Membranes of transiently transfected BHK tk'ts 13 cells; also called rCTR; rat calcitonin (a) receptor
T1 sequence (looked up): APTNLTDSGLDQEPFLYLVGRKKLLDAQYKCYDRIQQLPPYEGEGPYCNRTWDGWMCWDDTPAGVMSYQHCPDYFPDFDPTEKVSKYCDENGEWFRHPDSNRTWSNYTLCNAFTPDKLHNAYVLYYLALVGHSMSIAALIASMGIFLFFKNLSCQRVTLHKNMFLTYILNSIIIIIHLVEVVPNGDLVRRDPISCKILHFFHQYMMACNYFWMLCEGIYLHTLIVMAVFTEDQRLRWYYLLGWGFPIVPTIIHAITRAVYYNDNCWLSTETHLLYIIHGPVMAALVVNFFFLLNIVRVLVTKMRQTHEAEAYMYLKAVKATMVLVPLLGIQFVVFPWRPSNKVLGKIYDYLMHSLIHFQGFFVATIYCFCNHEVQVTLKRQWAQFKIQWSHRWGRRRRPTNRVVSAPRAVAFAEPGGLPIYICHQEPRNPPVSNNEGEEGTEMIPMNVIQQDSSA

T2: human calcitonin receptor (human, UniProt P30988 25-474)
T2 construct: whole, on cells; Membranes of stably transfected cells; also called hCTR; hCT
T2 sequence (looked up): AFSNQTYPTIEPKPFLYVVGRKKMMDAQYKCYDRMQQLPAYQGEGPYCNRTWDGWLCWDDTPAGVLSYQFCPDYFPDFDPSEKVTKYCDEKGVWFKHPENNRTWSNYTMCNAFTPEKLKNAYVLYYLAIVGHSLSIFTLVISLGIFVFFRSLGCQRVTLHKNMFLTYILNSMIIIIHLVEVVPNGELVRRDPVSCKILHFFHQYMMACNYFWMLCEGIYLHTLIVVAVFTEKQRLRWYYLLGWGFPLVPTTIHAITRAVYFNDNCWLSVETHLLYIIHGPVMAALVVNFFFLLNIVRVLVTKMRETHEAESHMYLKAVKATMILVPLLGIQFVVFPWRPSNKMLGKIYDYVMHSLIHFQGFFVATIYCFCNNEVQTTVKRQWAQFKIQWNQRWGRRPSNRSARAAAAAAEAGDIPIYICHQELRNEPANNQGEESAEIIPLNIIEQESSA

T3: rat amylin receptor (rat calcitonin receptor + rat RAMP 3) (rat, UniProt P32214 25-516; Q9JJ73 23-147)
T3 construct: whole, on cells; Membranes of transiently transfected BHK tk'ts 13 cells; also called rAmylin-R; rat amylin 3(a) receptor
T3 sequence (looked up) 1: T1 sequence (looked up)
T3 sequence (looked up) 2: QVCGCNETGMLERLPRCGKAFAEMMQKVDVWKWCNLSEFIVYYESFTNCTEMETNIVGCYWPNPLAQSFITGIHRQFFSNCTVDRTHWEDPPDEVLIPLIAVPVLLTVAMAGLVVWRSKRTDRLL

B1: N^ε1-[(4S)-4-carboxy-4-[[(4S)-4-carboxy-4-(19-carboxynonadecanoylamino)butanoyl]amino]butanoyl]-[Glu14,Arg17,Pro23,Pro34,Glu35]-h-amylin (peptide)
peptide: K([γGlu-γGlu-C20 diacid])CNTATCATQRLAEFLRHSSNNPGAILSSTNVGPETY-NH2
modifications: disulfide 2-7; N-terminus assumed
SMILES: CC[C@H](C)[C@H](NC(=O)[C@H](C)NC(=O)CNC(=O)[C@@H]1CCCN1C(=O)[C@H](CC(N)=O)NC(=O)[C@H](CC(N)=O)NC(=O)[C@H](CO)NC(=O)[C@H](CO)NC(=O)[C@H](Cc1c[nH]cn1)NC(=O)[C@H](CCCNC(=N)N)NC(=O)[C@H](CC(C)C)NC(=O)[C@H](Cc1ccccc1)NC(=O)[C@H](CCC(=O)O)NC(=O)[C@H](C)NC(=O)[C@H](CC(C)C)NC(=O)[C@H](CCCNC(=N)N)NC(=O)[C@H](CCC(N)=O)NC(=O)[C@@H](NC(=O)[C@H](C)NC(=O)[C@@H]1CSSC[C@H](NC(=O)[C@@H](N)CCCCNC(=O)CC[C@H](NC(=O)CC[C@H](NC(=O)CCCCCCCCCCCCCCCCCCC(=O)O)C(=O)O)C(=O)O)C(=O)N[C@@H](CC(N)=O)C(=O)N[C@@H]([C@@H](C)O)C(=O)N[C@@H](C)C(=O)N[C@@H]([C@@H](C)O)C(=O)N1)[C@@H](C)O)C(=O)N[C@@H](CC(C)C)C(=O)N[C@@H](CO)C(=O)N[C@@H](CO)C(=O)N[C@H](C(=O)N[C@@H](CC(N)=O)C(=O)N[C@H](C(=O)NCC(=O)N1CCC[C@H]1C(=O)N[C@@H](CCC(=O)O)C(=O)N[C@H](C(=O)N[C@@H](Cc1ccc(O)cc1)C(N)=O)[C@@H](C)O)C(C)C)[C@@H](C)O
notes: Synthetic acylated analogue of human amylin
B2: N^ε1-[(4S)-4-carboxy-4-[[(4S)-4-carboxy-4-(19-carboxynonadecanoylamino)butanoyl]amino]butanoyl]-[His14,Arg17,Pro21,Pro27]-h-amylin (peptide)
peptide: K([γGlu-γGlu-C20 diacid])CNTATCATQRLAHFLRHSSPNFGAIPSSTNVGSNTY-NH2
modifications: disulfide 2-7; N-terminus assumed
SMILES: CC[C@H](C)[C@H](NC(=O)[C@H](C)NC(=O)CNC(=O)[C@H](Cc1ccccc1)NC(=O)[C@H](CC(N)=O)NC(=O)[C@@H]1CCCN1C(=O)[C@H](CO)NC(=O)[C@H](CO)NC(=O)[C@H](Cc1c[nH]cn1)NC(=O)[C@H](CCCNC(=N)N)NC(=O)[C@H](CC(C)C)NC(=O)[C@H](Cc1ccccc1)NC(=O)[C@H](Cc1c[nH]cn1)NC(=O)[C@H](C)NC(=O)[C@H](CC(C)C)NC(=O)[C@H](CCCNC(=N)N)NC(=O)[C@H](CCC(N)=O)NC(=O)[C@@H](NC(=O)[C@H](C)NC(=O)[C@@H]1CSSC[C@H](NC(=O)[C@@H](N)CCCCNC(=O)CC[C@H](NC(=O)CC[C@H](NC(=O)CCCCCCCCCCCCCCCCCCC(=O)O)C(=O)O)C(=O)O)C(=O)N[C@@H](CC(N)=O)C(=O)N[C@@H]([C@@H](C)O)C(=O)N[C@@H](C)C(=O)N[C@@H]([C@@H](C)O)C(=O)N1)[C@@H](C)O)C(=O)N1CCC[C@H]1C(=O)N[C@@H](CO)C(=O)N[C@@H](CO)C(=O)N[C@H](C(=O)N[C@@H](CC(N)=O)C(=O)N[C@H](C(=O)NCC(=O)N[C@@H](CO)C(=O)N[C@@H](CC(N)=O)C(=O)N[C@H](C(=O)N[C@@H](Cc1ccc(O)cc1)C(N)=O)[C@@H](C)O)C(C)C)[C@@H](C)O
notes: Synthetic acylated analogue of human amylin; also called compound 92
B3: N^ε1-[(4S)-4-carboxy-4-[[(4S)-4-carboxy-4-(19-carboxynonadecanoylamino)butanoyl]amino]butanoyl]-[Ser14,Arg17,Pro21,Pro27,Pro34,Glu35]-h-amylin (peptide)
peptide: K([γGlu-γGlu-C20 diacid])CNTATCATQRLASFLRHSSPNFGAIPSSTNVGPETY-NH2
modifications: disulfide 2-7; N-terminus assumed
SMILES: CC[C@H](C)[C@H](NC(=O)[C@H](C)NC(=O)CNC(=O)[C@H](Cc1ccccc1)NC(=O)[C@H](CC(N)=O)NC(=O)[C@@H]1CCCN1C(=O)[C@H](CO)NC(=O)[C@H](CO)NC(=O)[C@H](Cc1c[nH]cn1)NC(=O)[C@H](CCCNC(=N)N)NC(=O)[C@H](CC(C)C)NC(=O)[C@H](Cc1ccccc1)NC(=O)[C@H](CO)NC(=O)[C@H](C)NC(=O)[C@H](CC(C)C)NC(=O)[C@H](CCCNC(=N)N)NC(=O)[C@H](CCC(N)=O)NC(=O)[C@@H](NC(=O)[C@H](C)NC(=O)[C@@H]1CSSC[C@H](NC(=O)[C@@H](N)CCCCNC(=O)CC[C@H](NC(=O)CC[C@H](NC(=O)CCCCCCCCCCCCCCCCCCC(=O)O)C(=O)O)C(=O)O)C(=O)N[C@@H](CC(N)=O)C(=O)N[C@@H]([C@@H](C)O)C(=O)N[C@@H](C)C(=O)N[C@@H]([C@@H](C)O)C(=O)N1)[C@@H](C)O)C(=O)N1CCC[C@H]1C(=O)N[C@@H](CO)C(=O)N[C@@H](CO)C(=O)N[C@H](C(=O)N[C@@H](CC(N)=O)C(=O)N[C@H](C(=O)NCC(=O)N1CCC[C@H]1C(=O)N[C@@H](CCC(=O)O)C(=O)N[C@H](C(=O)N[C@@H](Cc1ccc(O)cc1)C(N)=O)[C@@H](C)O)C(C)C)[C@@H](C)O
notes: Synthetic acylated analogue of human amylin; also called compound 120
B4: N^-1-[(4S)-4-carboxy-4-(19-carboxynonadecanoylamino)butanoyl]-Gly[Arg1,His14,Arg17,Pro21,Pro27,His34]-h-amylin (peptide)
peptide: {C20 diacid-γGlu}-GRCNTATCATQRLAHFLRHSSPNFGAIPSSTNVGHNTY-NH2
modifications: disulfide 3-8
SMILES: CC[C@H](C)[C@H](NC(=O)[C@H](C)NC(=O)CNC(=O)[C@H](Cc1ccccc1)NC(=O)[C@H](CC(N)=O)NC(=O)[C@@H]1CCCN1C(=O)[C@H](CO)NC(=O)[C@H](CO)NC(=O)[C@H](Cc1c[nH]cn1)NC(=O)[C@H](CCCNC(=N)N)NC(=O)[C@H](CC(C)C)NC(=O)[C@H](Cc1ccccc1)NC(=O)[C@H](Cc1c[nH]cn1)NC(=O)[C@H](C)NC(=O)[C@H](CC(C)C)NC(=O)[C@H](CCCNC(=N)N)NC(=O)[C@H](CCC(N)=O)NC(=O)[C@@H](NC(=O)[C@H](C)NC(=O)[C@@H]1CSSC[C@H](NC(=O)[C@H](CCCNC(=N)N)NC(=O)CNC(=O)CC[C@H](NC(=O)CCCCCCCCCCCCCCCCCCC(=O)O)C(=O)O)C(=O)N[C@@H](CC(N)=O)C(=O)N[C@@H]([C@@H](C)O)C(=O)N[C@@H](C)C(=O)N[C@@H]([C@@H](C)O)C(=O)N1)[C@@H](C)O)C(=O)N1CCC[C@H]1C(=O)N[C@@H](CO)C(=O)N[C@@H](CO)C(=O)N[C@H](C(=O)N[C@@H](CC(N)=O)C(=O)N[C@H](C(=O)NCC(=O)N[C@@H](Cc1c[nH]cn1)C(=O)N[C@@H](CC(N)=O)C(=O)N[C@H](C(=O)N[C@@H](Cc1ccc(O)cc1)C(N)=O)[C@@H](C)O)C(C)C)[C@@H](C)O
notes: Synthetic acylated analogue of human amylin, extended by Gly at position -1; also called compound 100
B5: N^-1-[(4S)-4-carboxy-4-(19-carboxynonadecanoylamino)butanoyl]-Gly[Arg1,Ala14,Arg17,Pro21,Pro27,His34]-h-amylin (peptide)
peptide: {C20 diacid-γGlu}-GRCNTATCATQRLAAFLRHSSPNFGAIPSSTNVGHNTY-NH2
modifications: disulfide 3-8
SMILES: CC[C@H](C)[C@H](NC(=O)[C@H](C)NC(=O)CNC(=O)[C@H](Cc1ccccc1)NC(=O)[C@H](CC(N)=O)NC(=O)[C@@H]1CCCN1C(=O)[C@H](CO)NC(=O)[C@H](CO)NC(=O)[C@H](Cc1c[nH]cn1)NC(=O)[C@H](CCCNC(=N)N)NC(=O)[C@H](CC(C)C)NC(=O)[C@H](Cc1ccccc1)NC(=O)[C@H](C)NC(=O)[C@H](C)NC(=O)[C@H](CC(C)C)NC(=O)[C@H](CCCNC(=N)N)NC(=O)[C@H](CCC(N)=O)NC(=O)[C@@H](NC(=O)[C@H](C)NC(=O)[C@@H]1CSSC[C@H](NC(=O)[C@H](CCCNC(=N)N)NC(=O)CNC(=O)CC[C@H](NC(=O)CCCCCCCCCCCCCCCCCCC(=O)O)C(=O)O)C(=O)N[C@@H](CC(N)=O)C(=O)N[C@@H]([C@@H](C)O)C(=O)N[C@@H](C)C(=O)N[C@@H]([C@@H](C)O)C(=O)N1)[C@@H](C)O)C(=O)N1CCC[C@H]1C(=O)N[C@@H](CO)C(=O)N[C@@H](CO)C(=O)N[C@H](C(=O)N[C@@H](CC(N)=O)C(=O)N[C@H](C(=O)NCC(=O)N[C@@H](Cc1c[nH]cn1)C(=O)N[C@@H](CC(N)=O)C(=O)N[C@H](C(=O)N[C@@H](Cc1ccc(O)cc1)C(N)=O)[C@@H](C)O)C(C)C)[C@@H](C)O
notes: Synthetic acylated analogue of human amylin, extended by Gly at position -1

biological target: T1, rat calcitonin receptor; assay: ratio of IC50 on rat calcitonin receptor to IC50 on rat amylin receptor (reference m40)

Compared with B1, B2 is higher in “Ratio rCT/rAmylin binding” value: 132 for the first, 156 for the second.

Compared with B3, B4 is lower in “Ratio rCT/rAmylin binding” value: 868 for the first, 27.7 for the second.

For B5, the “Ratio rCT/rAmylin binding” value was 60.9.

biological target: T2, human calcitonin receptor; assay: ratio of IC50 on human calcitonin receptor to IC50 on human amylin receptor (reference m42), SPA competition
In short: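 Membranes (35 ng/μL final) + SPA beads, 50 mM Hepes pH 7.4 buffer with 1 mM CaCl2, 5 mM MgCl₂, 0.1% OA, 0.02% Tween20; 120 min, 25° C, shaking; centrifuged, counted; IC₅₀ by one-site binding competition.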

First: B1
Second: B2
The “Ratio hCT/hAmylin binding” value of the first is lower: 7.8 for the first, 145 for the second.

Compared with B3, B4 is higher in “Ratio hCT/hAmylin binding” value: 45.3 for the first, 65.3 for the second.

B5 was tested, and the “Ratio hCT/hAmylin binding” value was 68.6.

biological target: T1, rat calcitonin receptor; assay: SPA competition with 125I-calcitonin on membranes of BHK tk'ts 13 cells with rat calcitonin receptor (Assay VIII)

B1 and B2 are within 1.5-fold of each other in IC50: 86.8 nM for the first, 104 nM for the second.

Going from B3 to B4, the IC50 rises from 140 nM to 311 nM (2.2-fold). The first is the more potent here.

For B5, the IC50 was 492 nM.

biological target: T3, rat amylin receptor (rat calcitonin …); assay: SPA competition with 125I-rat amylin on membranes of BHK tk'ts 13 cells with rat calcitonin receptor + rat RAMP3 (Assay VI)

B1 and B2 are within 1.5-fold of each other in IC50: 0.659 nM for the first, 0.668 nM for the second.

Compared with B3, B4 is 70-fold higher in IC50: 0.161 nM for the first, 11.2 nM for the second.

B5 gave an IC50 of 8.07 nM.

Reference: patent US20140087995A1 (published 2014)
